± gives the uncertainty stated by the source.
Experiment: self-splicing fitness, log relative to wild type (ln ratio); higher = more splicing; Tetrahymena group I intron in knt gene, E. coli kanamycin selection, DiMSum; sequences stand for … in CUCUCU…GGAGGGAAAAGUUAUCAGGCAUGCACCUGGUAGCUAGUCUUUAAACCAAUAGAUUGCAUCGGUUUAAAAGGCAAGACCGUCAAAUUGCGGGAAAGGGGUCAACAGCCGUUCAGUACCAAGUCUCAGGGGAAACUUUGAGAUGGCCUUGCAAAGGGUAUGGUAAUAAGCUGACGGACAUGGUCCUAACCACGCAGCCAAGUCCUAAGUCAACAGAUCUUCUGUUGAUAUGGAUGCAGUUCACAGACUAAAUGUCGGUCGGGGAAGAUGUAUUCUUCUCAUAAGAUAUAGUCGGACCUCUCCUUAAUGGGAGCUAGCGGAUGAAGUGAUGCAACACUGGAGCCGCUGGGAACUAAUUUGUAUGCGAAAGUAUAUUGAUUAGUUUUGGAGUACUCGUGGUCG
How it was run: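 The eight P1ex-region nucleotides of an intron in the knt kanamycin-resistance gene on pET-22b(+) were all randomised and the library put into E. coli BL21(DE3). Six replicate transformations were grown overnight at 37°C or 30°C on LB agar with or without 25 μg/mL kanamycin, together with 100 μg/mL carbenicillin, 50 μM IPTG and 0.2% rhamnose. Colonies were pooled and amplicon-sequenced on an Illumina HiSeq 2500. Fitness from DiMSum is the error-weighted combination of wild-type-normalised replicate fold changes, kanamycin over none.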

Sequence | self-splicing fitness (ln) (30 °C) | self-splicing fitness (ln) (37 °C)
ACUUAGCAAUAUUACGGAGU | -3.58 ± 0.47 | -3.1 ± 0.3
CGAAAGCAAUAUUACGGUGA | -1.52 ± 0.084 | -0.808 ± 0.11
GCCUAGCAAUAUUACGGGCC | -4.2 ± 0.26 | -3.41 ± 0.39
UAAGAGCAAUAUUACGGGUG | -3.49 ± 0.18 | -1.06 ± 0.13
CUCGAGCAAUAUUACGCCAC | -2.89 ± 0.43 | -1.24 ± 0.43
ACCGAGCAAUAUUACGCCAG |  | -1.35 ± 0.27
CGAGAGCAAUAUUACGGUAU | -3.41 ± 0.28 | -2.88 ± 0.29
GCAGAGCAAUAUUACGCUGU | -2.66 ± 0.18 | -2.87 ± 0.23
AAGCAGCAAUAUUACGGGUG | -3.43 ± 0.13 | -1.85 ± 0.1
CACCAGCAAUAUUACGUAAU | -2.63 ± 0.078 | -1.89 ± 0.097
GGUUAGCAAUAUUACGUCAU | -1.03 ± 0.21 | 0.277 ± 0.21
GUAGAGCAAUAUUACGCGGC | -3.37 ± 0.2 | -2.07 ± 0.18
AUGUAGCAAUAUUACGCAGC | -2.64 ± 0.37 | -0.433 ± 0.17
UCCAAGCAAUAUUACGCAUU | -4.05 ± 0.21 | -2.35 ± 0.23
GGCAAGCAAUAUUACGGCUU | -0.985 ± 0.074 | 0.644 ± 0.12
AUGCAGCAAUAUUACGAGCA | -0.52 ± 0.089 | -0.627 ± 0.097
CAGAAGCAAUAUUACGGCAU | -3.35 ± 0.19 | -1.95 ± 0.15
UACGAGCAAUAUUACGAUCC | -3.23 ± 0.33 | 
GCCUAGCAAUAUUACGGUAC | -2.66 ± 0.15 | -0.822 ± 0.13
UGAAAGCAAUAUUACGGUGA | -1.27 ± 0.11 | -1.04 ± 0.14
CUGGAGCAAUAUUACGGCGG | -0.649 ± 0.16 | -1.44 ± 0.26
UGAGAGCAAUAUUACGGUAA | -4.27 ± 0.25 | -2.27 ± 0.23
UAUUAGCAAUAUUACGCAGU | -2.78 ± 0.28 | -2.72 ± 0.26
GGUGAGCAAUAUUACGUUUU | -2.94 ± 0.26 | -1.6 ± 0.23
CCCGAGCAAUAUUACGUAGA | -3.94 ± 0.3 | -2.92 ± 0.24

Sequence | self-splicing fitness (ln) (30 °C) | self-splicing fitness (ln) (37 °C)
AUAUAGCAAUAUUACGUUCA | -0.388 ± 0.23 | -0.707 ± 0.23
ACCAAGCAAUAUUACGUAAU | -2.74 ± 0.098 | -0.681 ± 0.078
GUCAAGCAAUAUUACGCCUC | -1.25 ± 0.25 | 0.644 ± 0.41
CCUUAGCAAUAUUACGAUAA | -3.53 ± 0.25 | -2.88 ± 0.27
CCGCAGCAAUAUUACGUCCU | -3.12 ± 0.18 | -1.39 ± 0.17
GGCUAGCAAUAUUACGCGCA | 0.157 ± 0.096 | -0.145 ± 0.13
AAAGAGCAAUAUUACGCUUG | -1.67 ± 0.13 | -1.19 ± 0.18
GAUUAGCAAUAUUACGCAGU | -3.28 ± 0.32 | -1.44 ± 0.19
GACUAGCAAUAUUACGUUCG | -3.18 ± 0.22 | -0.787 ± 0.13
GGCCAGCAAUAUUACGCUUA | -0.822 ± 0.15 | 0.139 ± 0.17
CUGGAGCAAUAUUACGAUGC |  | -1.84 ± 0.4
UGUCAGCAAUAUUACGUCCA | -0.159 ± 0.094 | -0.505 ± 0.12
CGCGAGCAAUAUUACGAACG | -3.04 ± 0.43 | -2.08 ± 0.32
UGAAAGCAAUAUUACGUCGC | -3.49 ± 0.23 | -2.98 ± 0.32
UCCUAGCAAUAUUACGCACU | -1.17 ± 0.12 | -0.784 ± 0.12
CUUAAGCAAUAUUACGGUGC | -3.83 ± 0.17 | -2.25 ± 0.2
AGAUAGCAAUAUUACGGAGC | -3.24 ± 0.29 | -1.5 ± 0.28
CCCGAGCAAUAUUACGGGUG | -3.42 ± 0.18 | -1.7 ± 0.12
GUACAGCAAUAUUACGACAC | -0.333 ± 0.099 | 0.291 ± 0.11
UGGGAGCAAUAUUACGACUU | -2.15 ± 0.091 | -0.921 ± 0.11
UCGUAGCAAUAUUACGUUGC | -3.02 ± 0.47 | 
CCAUAGCAAUAUUACGUGCU | -3.88 ± 0.17 | -2.1 ± 0.15
GCCAAGCAAUAUUACGGCUU | -5.36 ± 0.34 | -3.31 ± 0.19
UACAAGCAAUAUUACGUCCG | -0.564 ± 0.068 | -0.0254 ± 0.091
AGUCAGCAAUAUUACGAUUA | 0.011 ± 0.11 | -0.381 ± 0.15

Sequence | self-splicing fitness (ln) (30 °C) | self-splicing fitness (ln) (37 °C)
ACACAGCAAUAUUACGGGCA | -1.48 ± 0.078 | -0.0778 ± 0.091
AUCAAGCAAUAUUACGAUUU | -0.487 ± 0.056 | -0.186 ± 0.072
UGAAAGCAAUAUUACGGAUG | -1.05 ± 0.09 | -0.581 ± 0.11
UCAUAGCAAUAUUACGAAAU | -2.86 ± 0.23 | -2.58 ± 0.28
AGUGAGCAAUAUUACGACUC | -3.04 ± 0.37 | 
GACAAGCAAUAUUACGAACG | -1.55 ± 0.13 | -0.997 ± 0.22
CAAAAGCAAUAUUACGAAAC | -4.17 ± 0.39 | -3.75 ± 0.33
CCUAAGCAAUAUUACGUUUG | -4.59 ± 0.18 | -3.16 ± 0.16
GAAGAGCAAUAUUACGAACU | -1.43 ± 0.15 | -0.479 ± 0.17
AUGAAGCAAUAUUACGCAUU | -3.78 ± 0.43 | -2.52 ± 0.31
AAACAGCAAUAUUACGUGAC | -3.5 ± 0.14 | -2.29 ± 0.13
CGUUAGCAAUAUUACGUUGG | -1.45 ± 0.091 | -0.573 ± 0.12
GACCAGCAAUAUUACGUGAG | -1.33 ± 0.055 | -1 ± 0.064
UGCCAGCAAUAUUACGUUGA | -2.21 ± 0.074 | -1.26 ± 0.082
GCGGAGCAAUAUUACGUUAC | -1.51 ± 0.22 | -2.36 ± 0.39
CAGCAGCAAUAUUACGUCGC | -3.31 ± 0.18 | -2.21 ± 0.21
GUCGAGCAAUAUUACGUAAC | -0.996 ± 0.13 | -0.434 ± 0.14
CAGUAGCAAUAUUACGUGCU | -2.95 ± 0.19 | -1.84 ± 0.3
ACUUAGCAAUAUUACGGUAA | -2.66 ± 0.15 | -1.42 ± 0.14
GUGUAGCAAUAUUACGAGUG | -2.83 ± 0.43 | 
CAUCAGCAAUAUUACGGUCU | -2.82 ± 0.1 | -2.22 ± 0.15
AGGAAGCAAUAUUACGGGUU | -3.14 ± 0.15 | -1.96 ± 0.15
AAGCAGCAAUAUUACGACCC | -1.78 ± 0.14 | -0.112 ± 0.15
UGCCAGCAAUAUUACGCUUC | -3.19 ± 0.23 | -1.86 ± 0.22
CCGGAGCAAUAUUACGUCGG | -3.63 ± 0.21 | -2.82 ± 0.3

Sequence | self-splicing fitness (ln) (30 °C) | self-splicing fitness (ln) (37 °C)
CACCAGCAAUAUUACGAUGC | -2.96 ± 0.13 | -2.06 ± 0.14
GCAAAGCAAUAUUACGGUAC | -1.91 ± 0.086 | 0.0303 ± 0.092
UCUCAGCAAUAUUACGUGGG | -3.43 ± 0.25 | -2.48 ± 0.21
AAAGAGCAAUAUUACGGCCC | -3.78 ± 0.37 | -1.59 ± 0.34
UCCAAGCAAUAUUACGCCAG |  | -1.9 ± 0.28
UCAGAGCAAUAUUACGGGCA | -3.11 ± 0.29 | -1.77 ± 0.17
GAACAGCAAUAUUACGGGAA | -2.38 ± 0.2 | 0.0433 ± 0.14
UUUGAGCAAUAUUACGUACG | -1.49 ± 0.32 | -0.599 ± 0.35
CCACAGCAAUAUUACGGACC | -4.45 ± 0.31 | -1.54 ± 0.22
UAAAAGCAAUAUUACGUGCG | -0.348 ± 0.07 | -0.119 ± 0.09
CGACAGCAAUAUUACGAGGG | -3.67 ± 0.13 | -2.99 ± 0.15
UACUAGCAAUAUUACGUUAG | -3.54 ± 0.19 | -2.66 ± 0.23
GAGAAGCAAUAUUACGGUCA | -0.263 ± 0.1 | 0.383 ± 0.12
UCAUAGCAAUAUUACGAGUU | -2.66 ± 0.34 | -1.56 ± 0.36
UAAAAGCAAUAUUACGUCUA | -0.487 ± 0.068 | 0.337 ± 0.097
GUCAAGCAAUAUUACGACAG | -4.39 ± 0.33 | -2.93 ± 0.33
UGUAAGCAAUAUUACGCAAC | -3.15 ± 0.31 | -1.79 ± 0.29
GCAAAGCAAUAUUACGACGA | -0.0819 ± 0.088 | -0.213 ± 0.1
CCUGAGCAAUAUUACGAUUA |  | -2.35 ± 0.33
UCCCAGCAAUAUUACGCAGA | -0.882 ± 0.06 | -0.0561 ± 0.073
UAGUAGCAAUAUUACGGAGG |  | -1.43 ± 0.44
GCGGAGCAAUAUUACGGACC | -1.77 ± 0.34 | 
CUCAAGCAAUAUUACGUGUG | -2.73 ± 0.074 | -1.42 ± 0.072
